From PMC9097366 (Cell reports, 2022)

B1: S. cerevisiae Atg23 FL (recombinant, purified) (natural protein, UniProt Q06671 1-453, looked up)
chain: MELNQVLEKKEQILQYLGTLVGLHEKALSDVNSASQVTSIRKDITICLNDLCRINDLLVSHDGLLKREIGSLLRDKQELLELNEREQLLWKERKSWHIKQETDAAPADYVIDKDAIITISSHHRTSLNKYIESVGAENTILSNTDDSDAMIEEVQNAESSADQMIRNYKLLQLSHKQAKSEIIRLETLLRDFKKDNKFIEEELKRQSGRIRSEMGNIDFHLSKIEESKHQLMKRIGFESPLTQEKSLSEKIFNLRLSSADEDYNERQTINMKNFVHMKDLIELKIEDLQEQLMRNKNESSTVLTQRELWLDCQKKVGDLESKLITKLRSSSNSKIPPNEMSEMINSTIQYLNNLLDSSDEKLTTTLISNERDVLSKACEELHSESTTAQDGSSALPSKPIDIHKSHKGSNASSNLKQPSTPSFLVASKSPPKIGISESVVNANKNDAISKKVE
B2: Atg23 M3 (recombinant, purified) (natural protein, S. cerevisiae, UniProt Q06671 1-453, looked up)
chain: MELNQVLEKKEQILQYLGTLVGLHEKALSDVNSASQVTSIRKDITICLNDLCRINDLLVSHDGLLEEEIGSLLRDKQELLELNEREQLLWKERKSWHIKQETDAAPADYVIDKDAIITISSHHRTSLNKYIESVGAENTILSNTDDSDAMIEEVQNAESSADQMIRNYKLLQLSHKQAKSEIIRLETLLRDFKKDNKFIEEELKRQSGRIRSEMGNIDFHLSKIEESKHQLMKRIGFESPLTQEKSLSEKIFNLRLSSADEDYNERQTINMKNFVHMKDLIELKIEDLQEQLMRNKNESSTVLTQRELWLDCQKKVGDLESKLITKLRSSSNSKIPPNEMSEMINSTIQYLNNLLDSSDEKLTTTLISNERDVLSKACEELHSESTTAQDGSSALPSKPIDIHKSHKGSNASSNLKQPSTPSFLVASKSPPKIGISESVVNANKNDAISKKVE
B3: Atg23 M5 (recombinant, purified) (natural protein, S. cerevisiae, UniProt Q06671 1-453, looked up)
chain: MELNQVLEKKEQILQYLGTLVGLHEKALSDVNSASQVTSIRKDITICLNDLCRINDLLVSHDGLLEEEIGSLLEDKQELLELNEEEQLLWKERKSWHIKQETDAAPADYVIDKDAIITISSHHRTSLNKYIESVGAENTILSNTDDSDAMIEEVQNAESSADQMIRNYKLLQLSHKQAKSEIIRLETLLRDFKKDNKFIEEELKRQSGRIRSEMGNIDFHLSKIEESKHQLMKRIGFESPLTQEKSLSEKIFNLRLSSADEDYNERQTINMKNFVHMKDLIELKIEDLQEQLMRNENESSTVLTQRELWLDCQKKVGDLESKLITKLRSSSNSKIPPNEMSEMINSTIQYLNNLLDSSDEKLTTTLISNERDVLSKACEELHSESTTAQDGSSALPSKPIDIHKSHKGSNASSNLKQPSTPSFLVASKSPPKIGISESVVNANKNDAISKKVE
B4: Atg23 M4 (recombinant, purified) (natural protein, S. cerevisiae, UniProt Q06671 1-453, looked up)
chain: MELNQVLEKKEQILQYLGTLVGLHEKALSDVNSASQVTSIRKDITICLNDLCRINDLLVSHDGLLEEEIGSLLRDKQELLELNEREQLLWKERKSWHIKQETDAAPADYVIDKDAIITISSHHRTSLNKYIESVGAENTILSNTDDSDAMIEEVQNAESSADQMIRNYKLLQLSHKQAKSEIIRLETLLRDFKKDNKFIEEELKRQSGRIRSEMGNIDFHLSKIEESKHQLMKRIGFESPLTQEKSLSEKIFNLRLSSADEDYNERQTINMKNFVHMKDLIELKIEDLQEQLMRNENESSTVLTQRELWLDCQKKVGDLESKLITKLRSSSNSKIPPNEMSEMINSTIQYLNNLLDSSDEKLTTTLISNERDVLSKACEELHSESTTAQDGSSALPSKPIDIHKSHKGSNASSNLKQPSTPSFLVASKSPPKIGISESVVNANKNDAISKKVE

Biological target: the molecule itself
Experiment: AUC

Stoichiometry N, 2:
B1
B2
B3
B4
